Target: α‐synuclein (UniProt P37840)

Chain of HspA8 (P11142 whole entry): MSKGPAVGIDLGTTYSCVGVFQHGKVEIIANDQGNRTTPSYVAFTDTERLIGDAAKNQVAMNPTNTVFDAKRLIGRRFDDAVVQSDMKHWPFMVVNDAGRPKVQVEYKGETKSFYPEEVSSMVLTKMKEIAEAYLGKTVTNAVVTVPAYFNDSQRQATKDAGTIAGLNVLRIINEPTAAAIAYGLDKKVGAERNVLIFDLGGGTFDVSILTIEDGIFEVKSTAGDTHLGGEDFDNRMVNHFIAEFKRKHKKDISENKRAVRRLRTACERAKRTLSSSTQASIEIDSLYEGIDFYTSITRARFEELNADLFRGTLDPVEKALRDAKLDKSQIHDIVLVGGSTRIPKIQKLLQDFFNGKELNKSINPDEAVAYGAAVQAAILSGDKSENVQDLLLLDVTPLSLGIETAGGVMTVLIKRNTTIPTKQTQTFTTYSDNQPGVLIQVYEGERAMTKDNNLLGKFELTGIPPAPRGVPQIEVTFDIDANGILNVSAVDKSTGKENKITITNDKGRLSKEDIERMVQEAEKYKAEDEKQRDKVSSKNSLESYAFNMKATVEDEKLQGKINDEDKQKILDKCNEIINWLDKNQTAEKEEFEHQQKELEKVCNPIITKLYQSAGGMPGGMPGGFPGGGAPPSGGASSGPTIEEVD
Chain of DNAJB1 (P25685 whole entry): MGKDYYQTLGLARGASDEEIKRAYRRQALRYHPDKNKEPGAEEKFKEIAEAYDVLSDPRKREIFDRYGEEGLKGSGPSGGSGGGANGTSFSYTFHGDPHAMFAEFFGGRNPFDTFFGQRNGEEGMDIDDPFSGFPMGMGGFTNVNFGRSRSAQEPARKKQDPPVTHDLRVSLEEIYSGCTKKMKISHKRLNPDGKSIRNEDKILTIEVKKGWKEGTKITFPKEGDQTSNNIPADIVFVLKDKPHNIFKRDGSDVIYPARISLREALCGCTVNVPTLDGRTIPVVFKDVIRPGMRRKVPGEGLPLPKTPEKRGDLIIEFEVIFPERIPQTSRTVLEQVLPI

Substance	Thioflavin‐T fluorescence: elongation of α‐synuclein seeds (2 μM) by monomeric α‐synuclein (0–20 μM) with and without the Hsp70 chaperones (2 μM HspA8, 1 μM DNAJB1, 0.2 μM Hsp110), 30°C [fold]
HspA8 (from UniProt P11142 1-646) (natural protein)	3
DNAJB1 (from UniProt P25685 1-340) (natural protein)	3

Source: paper PMC12432404
